The labels stand for the following.
T1: IL-2Rαβγ on KHYG-1 cells (human NK leukemia cell line that expresses IL-2Rα, β, and γ) (human, UniProt P01589 22-272; P14784 27-551; P31785 23-369)
T1 sequence (looked up) 1: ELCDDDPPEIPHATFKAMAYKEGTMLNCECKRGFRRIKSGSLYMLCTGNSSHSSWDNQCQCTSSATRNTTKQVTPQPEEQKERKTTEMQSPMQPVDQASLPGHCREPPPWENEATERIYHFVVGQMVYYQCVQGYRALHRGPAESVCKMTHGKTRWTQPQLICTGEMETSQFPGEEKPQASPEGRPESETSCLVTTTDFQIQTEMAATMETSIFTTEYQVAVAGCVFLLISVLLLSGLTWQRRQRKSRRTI
T1 sequence (looked up) 2: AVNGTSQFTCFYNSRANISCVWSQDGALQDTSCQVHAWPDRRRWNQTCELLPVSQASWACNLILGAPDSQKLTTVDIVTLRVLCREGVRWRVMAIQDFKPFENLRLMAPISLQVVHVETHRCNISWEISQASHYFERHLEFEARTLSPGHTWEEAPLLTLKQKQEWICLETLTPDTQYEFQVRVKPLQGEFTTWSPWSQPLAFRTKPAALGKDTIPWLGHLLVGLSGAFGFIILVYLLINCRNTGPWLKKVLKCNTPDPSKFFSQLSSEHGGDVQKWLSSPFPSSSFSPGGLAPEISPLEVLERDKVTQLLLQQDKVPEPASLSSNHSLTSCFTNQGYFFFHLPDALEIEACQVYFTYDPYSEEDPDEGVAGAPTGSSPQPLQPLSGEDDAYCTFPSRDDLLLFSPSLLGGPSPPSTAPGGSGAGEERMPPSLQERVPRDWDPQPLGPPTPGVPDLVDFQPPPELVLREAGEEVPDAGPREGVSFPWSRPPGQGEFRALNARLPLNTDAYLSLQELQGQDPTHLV
T1 sequence (looked up) 3: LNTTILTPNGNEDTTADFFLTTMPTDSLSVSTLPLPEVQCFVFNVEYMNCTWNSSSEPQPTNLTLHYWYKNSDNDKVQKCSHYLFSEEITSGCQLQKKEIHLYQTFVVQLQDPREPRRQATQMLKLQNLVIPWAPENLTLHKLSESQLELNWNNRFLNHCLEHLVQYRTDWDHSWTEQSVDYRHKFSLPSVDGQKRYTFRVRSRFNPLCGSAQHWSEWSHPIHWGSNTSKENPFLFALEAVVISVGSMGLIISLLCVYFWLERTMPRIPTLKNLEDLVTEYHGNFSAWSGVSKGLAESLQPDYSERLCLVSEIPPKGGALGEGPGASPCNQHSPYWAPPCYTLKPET

T2: trimeric murine IL-2 receptor (IL-2Rα, IL-2Rβ, and IL-2Rγ) on CTLL-2 cells (murine, UniProt P01590 22-268; P16297 27-539; P34902 23-369)
T2 sequence (looked up) 1: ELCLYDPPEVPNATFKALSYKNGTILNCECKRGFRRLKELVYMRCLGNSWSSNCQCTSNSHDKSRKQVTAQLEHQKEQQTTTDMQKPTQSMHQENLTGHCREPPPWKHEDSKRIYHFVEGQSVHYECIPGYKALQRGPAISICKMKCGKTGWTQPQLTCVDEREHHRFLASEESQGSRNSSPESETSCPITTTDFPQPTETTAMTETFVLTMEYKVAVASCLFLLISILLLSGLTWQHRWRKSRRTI
T2 sequence (looked up) 2: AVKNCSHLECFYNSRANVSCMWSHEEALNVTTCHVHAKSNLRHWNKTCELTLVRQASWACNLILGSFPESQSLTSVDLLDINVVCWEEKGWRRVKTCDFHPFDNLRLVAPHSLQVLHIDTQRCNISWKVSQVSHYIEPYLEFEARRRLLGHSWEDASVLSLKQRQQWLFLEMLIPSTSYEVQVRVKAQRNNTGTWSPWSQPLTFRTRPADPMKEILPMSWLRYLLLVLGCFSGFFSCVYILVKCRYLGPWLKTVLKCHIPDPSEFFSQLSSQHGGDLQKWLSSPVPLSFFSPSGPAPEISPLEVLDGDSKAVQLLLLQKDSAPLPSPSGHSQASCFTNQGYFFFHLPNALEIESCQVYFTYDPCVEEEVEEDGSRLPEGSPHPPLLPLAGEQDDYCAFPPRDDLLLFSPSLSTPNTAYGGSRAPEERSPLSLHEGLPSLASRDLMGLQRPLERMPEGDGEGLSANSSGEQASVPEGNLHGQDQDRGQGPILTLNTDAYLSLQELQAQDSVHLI
T2 sequence (looked up) 3: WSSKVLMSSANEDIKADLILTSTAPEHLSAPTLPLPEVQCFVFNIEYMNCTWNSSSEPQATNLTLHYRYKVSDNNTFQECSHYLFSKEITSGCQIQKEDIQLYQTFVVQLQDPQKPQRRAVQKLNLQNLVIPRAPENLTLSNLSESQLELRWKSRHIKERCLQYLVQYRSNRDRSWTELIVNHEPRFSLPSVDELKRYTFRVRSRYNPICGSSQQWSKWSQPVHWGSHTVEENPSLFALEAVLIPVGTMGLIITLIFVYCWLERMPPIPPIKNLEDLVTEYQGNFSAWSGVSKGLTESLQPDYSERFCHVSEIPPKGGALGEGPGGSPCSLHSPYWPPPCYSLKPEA

T3: IL-2Rα (recombinant IL-2 receptor α, R&D Systems Cat #: 223-2A/CF), biotinylated (human, UniProt P01589 22-213, limits assumed, biotinylated using sulfo-NHS-LC-LC-Biotin)
T3 construct: Bought reagent; also used here as the IL-2Rα partner of the in-silico analysis of PDB 2B5I (another construct); also called IL-2RA; CD25
T3 sequence (looked up): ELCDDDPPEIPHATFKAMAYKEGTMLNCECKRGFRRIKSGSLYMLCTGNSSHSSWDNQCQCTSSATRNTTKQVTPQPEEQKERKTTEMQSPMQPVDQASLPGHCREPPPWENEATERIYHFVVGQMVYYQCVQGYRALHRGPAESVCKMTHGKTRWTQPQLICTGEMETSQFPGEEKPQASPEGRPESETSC

B1: Fc-IL-2v heterodimer 113.46 (hIL-2v_Δ1-5_R38G_E62A_C125S) (Fc fusion)
chain 1: ESKYGPPCPPCPAPEAAGGPSVFLFPPKPKDTLMISRTPEVTCVVVDVSQEDPEVQFNWYVDGVEVHNAKTKPREEQFNSTYRVVSVLTVLHQDWLNGKEYKCKVSNKGLPSSIEKTISKAKGQPREPQVYTLPPSQEEMTKNQVSLWCLVKGFYPSDIAVEWESNGQPENNYKTTPPVLDSDGSFFLYSRLTVDKSRWQEGNVFSCSVMHEALHNHYTQKSLSLSLGGGGGSGGGGSGGGGSGGGGSSTKKTQLQLEHLLLDLQMILNGINNYKNPKLTGMLTFKFYMPKKATELKHLQCLEEALKPLEEVLNLAQSKNFHLRPRDLISNINVIVLELKGSETTFMCEYADETATIVEFLNRWITFSQSIISTLT
chain 2: ESKYGPPCPPCPAPEAAGGPSVFLFPPKPKDTLMISRTPEVTCVVVDVSQEDPEVQFNWYVDGVEVHNAKTKPREEQFNSTYRVVSVLTVLHQDWLNGKEYKCKVSNKGLPSSIEKTISKAKGQPREPQVYTLPPSQEEMTKNQVSLSCAVKGFYPSDIAVEWESNGQPENNYKTTPPVLDSDGSFFLVSRLTVDKSRWQEGNVFSCSVMHEALHNRFTQKSLSLSLGK
notes: hIgG4 knob-in-hole Fc heterodimer, one IL-2v on the knob chain
B2: Fc-IL-2v heterodimer 114.46 (hIL-2v_Δ1-5_R38G_F42A_E62A_C125S) (Fc fusion)
chain 1: B1 chain 1 with F285A
chain 2: B1 chain 2
notes: as for B1
B3: Fc-IL-2v heterodimer 108.46 (hIL-2v_Δ1-5_F42A_Y45G_E62A_C125S) (Fc fusion)
chain 1: B1 chain 1 with G281R, F285A, Y288G
chain 2: B1 chain 2
notes: as for B1
B4: Fc-IL-2v heterodimer 107.46 (hIL-2v_Δ1-5_F42A_E62A_C125S) (Fc fusion)
chain 1: B1 chain 1 with G281R, F285A
chain 2: B1 chain 2
notes: as for B1
B5: mouse surrogate Fc-IL-2v heterodimer 170.250 (IL2v_R52G_E76A_C140A) (Fc fusion)
chain 1: GPTIKPCPPCKCPAPNAAGGPSVFIFPPKIKDVLMISLSPIVTCVVVDVSEDDPDVQISWFVNNVEVHTAQTQTHREDYNSTLRVVSALPIQHQDWMSGKEFKCKVNNKDLGAPIERTISKPKGSVRAPQVYVLPPPEEEMTKKQVTLWCMVTDFMPEDIYVEWTNNGKTELNYKNTEPVLDSDGSYFMYSKLRVEKKNWVERNSYSCSVVHEGLHNHHTTKSFSRTPGGGGGSGGGGSGGGGSGGGGSQQQHLEQLLMDLQELLSRMENYRNLKLPGMLTFKFYLPKQATELKDLQCLEDALGPLRHVLDLTQSKSFQLEDAENFISNIRVTVVKLKGSDNTFECQFDDESATVVDFLRRWIAFAQSIISTSPQ
chain 2: GPTIKPCPPCKCPAPNAAGGPSVFIFPPKIKDVLMISLSPIVTCVVVDVSEDDPDVQISWFVNNVEVHTAQTQTHREDYNSTLRVVSALPIQHQDWMSGKEFKCKVNNKDLGAPIERTISKPKGSVRAPQVYVLPPPEEEMTKKQVTLSCAVTDFMPEDIYVEWTNNGKTELNYKNTEPVLDSDGSYFMVSKLRVEKKNWVERNSYSCSVVHEGLHNHHTTKSFSRTPGK
B6: Fc-IL-2v heterodimer 96.46 (hIL-2v_Δ1-5_Y45G_E61A_C125S) (Fc fusion)
chain 1: B1 chain 1 with G281R, Y288G, E304A, A305E
chain 2: B1 chain 2
notes: as for B1
B7: Fc-IL-2v heterodimer 99.46 (hIL-2v_Δ1-5_R38G_E61A_C125S) (Fc fusion)
chain 1: B1 chain 1 with E304A, A305E
chain 2: B1 chain 2
notes: as for B1
B8: Fc-IL-2v heterodimer 105.46 (hIL-2v_Δ1-5_F42A_Y45A_L72G_C125S) (Fc fusion)
chain 1: B1 chain 1 with G281R, F285A, Y288A, A305E, L315G
chain 2: B1 chain 2
notes: as for B1
B9: Fc-IL-2v heterodimer 98.46 (hIL-2v_Δ1-5_R38G_Y45G_C125S) (Fc fusion)
chain 1: B1 chain 1 with Y288G, A305E
chain 2: B1 chain 2
notes: as for B1

Changes are numbered by the printed parent chain.

The first experiment deals with T1, IL-2Rαβγ on KHYG-1 cells (human NK …). The experiment is described as follows: cell-based or functional assay.
With B1, the “Proliferation of KHYG-1 NK cells, EC50” value worked out at 0.344 nM.
In the case of B2, the “Proliferation of KHYG-1 NK cells, EC50” value is 0.336 nM.
On the same count and under the same terms, the value for B3 was 0.191 nM; that for B4 was 0.235 nM.

Another experiment addresses T2, trimeric murine IL-2 receptor (IL-2Rα, …). The experiment is described as follows: cell-based or functional assay.
As to B5, the “pSTAT5 EC50, STAT5 activation of CTLL-2 cells” value stood at 9.6 nM.

In another experiment the target is T3, IL-2Rα (recombinant IL-2 receptor α, …). The experiment is described as follows: SPR (Biacore), CM4 chip, biotinylated receptor on neutravidin. The protocol:
(§1) Fc-IL-2 variant binding data was collected on a Biacore platform using a CM4 chip. Neutravidin was immobilized using standard amine coupling methods and used to capture biotinylated receptors. The source, preparation and immobilization of biotinylated IL-2Rα and IL-2Rβγ heterodimer was as described in Example 4. Proleukin was used as a comparator. Fc-IL-2 variants and Proleukin were injected at various concentrations over these surfaces. Kinetic data obtained from these injections was used to extract kₒₙ and koff to calculate KD (KD=Koff/kₒₙ).
For B6, the Kd (usually the free concentration of one partner at which half of the binding sites on the other are occupied at equilibrium, for simple one-to-one binding) amounted to 56 µM.
For B2, the dissociation constant Kd was > 60 µM.
Same read-out and setting: then B7, with 39 µM; and B8, with > 60 µM.
Still for that read-out and setting: then B4, with > 60 µM.
The same measure, in the same setting: the value for B9 was 59 µM.

A further experiment addresses T4, IL-2Rβγ heterodimer, custom biotinylated Fc fusion protein (human IL-2Rβ 27-240-Fc-FLAG / human IL-2Rγ … (human, site-specific biotinylation at the AviTag)).
T4 construct: Extracellular regions fused to IgG1 knob-in-hole Fc subunits with tags; also called IL-2 receptor βγ heterodimer; Fc-IL-2Rβγ
The description is as above. The procedure: as §1
For the molecule B6, the Kd worked out at 0.064 nM.
The same measure, in the same setting: then B1, with 0.072 nM.
On the same count and under the same terms, then B2, with 0.076 nM; and B3, with 0.062 nM; and B7, with 0.065 nM.
Same read-out and setting: then B8, with 0.063 nM; and B4, with 0.069 nM; and B9, with 0.056 nM.

For the next experiment, the target named is T2, trimeric murine IL-2 receptor (IL-2Rα, …). The experiment is described as follows: cell-based or functional assay. This is another data set of the same source.
With B6, the “STAT5 activation of CTLL-2 cells, EC50” value is 0.4 nM.
Same read-out and setting: the value for B1 was 3.1 nM; that for B2 was 61.2 nM; that for B3 was 41.4 nM.
Same read-out and setting: the value for B7 was 0.03 nM; that for B8 was 7.7 nM; that for B4 was 25.5 nM.
On the same count and under the same terms, the value for B9 was 0.2 nM.

The record behind these values is patent US20240269235A1 (Gilead, published 2024).
